Results: the supplement of paper PMC12042874
± gives the uncertainty stated by the source.

assay: amyloid nucleation score (Sup35N fusion, yeast selection) (log enrichment); library NNK3; higher = more nucleation; inactive = no reads after selection
How it was run: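 The nucleation score is the log enrichment of output over input reads, calculated with DiMSum and centred on the mode score of non-aggregating sequences. Sequences with under 100 input reads were excluded. Reads came from Illumina sequencing of plasmid inserts from psi-negative yeast expressing Sup35N fused to peptides of 20 random codons, induced 24 hours with 100 μM copper sulfate and grown 7 days at 30°C without adenine and uracil.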

Substance | amyloid nucleation score
CMPHG | inactive
VLKASNFV | inactive
VICKAPGRPGHLCCKCIAVH | inactive
KFLYGGFCGWMSAVLNVLYP | -0.364 ± 0.82
RKEMLKMRRFRSRGCWVILS | inactive
LDTSNMPTYGLKSEVSVIAR | inactive
KLTIRYLWYPLEQSGYRTCE | 1.06 ± 0.2
VTLRCNGDMVYHYLPCGVLR | inactive
CFFIVGLARIFGLVPVA | 0.804 ± 0.12
RVERICDNVSSC | -0.577 ± 1
FLLERLSV | inactive
SVDVYRSCEVGKCGGSYSTF | inactive
VYGVTSHCTVRRELWAGSIM | inactive
FRYNDFMRD | inactive
RGGCQATVGNALNIRFFAQG | 1.72 ± 0.095
ADVNTL | inactive
YYLVSWYVTTVLKSGLLSVR | inactive
HIVPAVCT | inactive
LVVTTPLRRGKDLDSMRYTC | inactive
LELVYGKIYSDPSTFRGHLV | inactive
FEVWRTGLCDRARGTVNRLK | inactive
ASDTVTCFAYAVKGLRRASG | inactive
LFASWEDFLASSRYWRLEKR | 0.356 ± 0.39

Substance | amyloid nucleation score
DMVLLWQEFDCGKVACLSGG | inactive
KPRVMFMISARVFVNYRICS | inactive
MCGDKSV | inactive
DCLFRNLMS | inactive
NCVRFFYASDLSNYTRA | inactive
RRNEFVLWYLGDTSWYVWFS | 0.268 ± 0.27
TVTGIMSKYANTSFRN | inactive
WRNENLPQSGRSMLVIFLLV | inactive
FFLNGVCDCLRIPCTNVYLY | inactive
CIVAANHRRCNFLRLGRRLG | -0.654 ± 1.5
TGRVLGYGLL | inactive
LIYYCEHHARLSVLLDESSA | inactive
SYQLCACK | inactive
SDGFLSADYRFFMMLRYRLE | inactive
IRSCIIRSFTYMLGLH | inactive
LWYGKYFFIDKRQA | 0.359 ± 0.23
FETGCW | inactive
YGFAYV | -0.336 ± 1.1
GNTFLWCGRVDSYSTHSYLC | inactive
TREIIYRDGQALQIAGWVSP | inactive
FGRGCHRSMTIGDLVFLLIT | inactive
IRYCGHIRTGCFRLISDLF | inactive
YLISNVFIVLSVDLCDVLGL | 2.44 ± 0.072

Substance | amyloid nucleation score
GHWTLDYEFKYPYGQQYHVP | inactive
VIDWAYSPKPSDLTG | 1.09 ± 0.16
ILRPPKAA | inactive
RFSCEYVATLTLSGRQAVKH | 0.043 ± 0.72
SIFLGLRSRQLSFISLLEDG | inactive
ILILS | inactive
HEGCSMSGRIPLLSRYMGYG | inactive
GIIMPKSRLVPTWTQSRSCC | inactive
FFNIDVHARVSI | inactive
RLMDITL | inactive
WDLGASYLTGMFWVRIVGLE | inactive
ICYTMST | inactive
ILGIIMI | inactive
IGNFRGL | inactive
MMSFNVPLNAWVLSEFDTTY | inactive
CFVGHADLKFMGFHWMVGEC | inactive
LLWEWYFI | inactive
YNFVPVFHVNMSVFLCILVL | 2.43 ± 0.072
CDVCNM | inactive
RRKRYCISDLA | inactive
LVYFFFRVYNGPRMGS | inactive
CVYGKYLFLVIPEDEPTLYV | 0.439 ± 0.31
IRERGLYEMNPYWCRGRKSM | inactive

Substance | amyloid nucleation score
TYFYAFALTVPYSWHSEDRM | 2.04 ± 0.054
PDTLRRNRVSRFTFAKRCGL | -0.769 ± 0.98
TCIGNNPMPYFTFCITHNAM | 1.03 ± 0.24
NCMFPGYLYNVDITLMDV | inactive
ANSNRRECQHNS | 1.06 ± 0.16
SSIWSGMSLFGFREIMSYVI | inactive
TVRASFGYNLRNWCSTVVVE | inactive
GGNVCRGVKIIVMWAMIFVM | inactive
GMAEFALQWIRMIGRL | 0.214 ± 0.45
IHDMVQYERCDNRNSNRVHE | inactive
RLGSSNV | inactive
RIVNALTSCDLFSCGSVLRR | 1.92 ± 0.1
DADSMRWNSPGLCH | inactive
LTINDLCGFVKWLRTNCNVS | inactive
GRYHDGAAQWGRHNVFRSSA | inactive
FNSKRW | inactive
KNTSCWAATSADQRRVDFRR | inactive
ACIFNLGGVHRCICCVLFNI | inactive
MNRTFVIIVKNVASMIKDNR | 2.1 ± 0.1
IFCYPQAQS | inactive
NYLGVTYCSYSS | inactive
CYVDVI | inactive
RKYVTRCASMMVHHYAYDTR | inactive

Substance | amyloid nucleation score
RCVSMEADWVVSAEFTKDVF | inactive
RAGDNIFWTIAKCTRNTHVM | inactive
TLRMTWALSIRLSPLL | inactive
ILMPKTVVTVYISNMCDYSQ | 2.58 ± 0.071
VFFMNYGHVIVHFEKFFGGN | 2.6 ± 0.082
IVRDFLAGPIKHSTFEVIDF | inactive
FCEMHYRLDN | 0.424 ± 0.17
TKWVVASLVCKSAGKTGRVI | inactive
AVLWIVSGGTYESVDLNYWC | 0.837 ± 0.13
MYFEECGRCFNRSFNYGVNQ | inactive
SSKSWLRYRVDEHTVSTFGF | inactive
LFSNTRVSSGYRSRLLSRCL | inactive
ALVVSTWYSPGDMDLTPLHW | inactive
NWRLFWG | 1.6 ± 0.077
SVSPCSTHFLMSFERYVRGT | inactive
SYMLNSCSWRTK | inactive
TFFWTRCDIVGREWVSNTVN | inactive
IIVLPEKRPR | inactive
RANVQDMTKISYVFTYTWYV | inactive
ELEYAHVIRGKKRCHSSRVV | inactive
VWFGESAFRLVSELCIIKDV | inactive
SLLCNHFPGHI | inactive
YACRVGVWKRVRVWNSGVSL | inactive

Substance | amyloid nucleation score
GPSAGGFCQLRGVDVDV | inactive
LNHRIWLTLFGSASRLVKFD | inactive
DCVRVRVLKSGTYLLYRSEA | inactive
FSNGMVLFF | inactive
DCLMDGDFRILGSFIHRFSE | inactive
IPFGLANSRFNVFASVMSDC | inactive
LQRYRPADMRVGASSSGNTK | 0.121 ± 1
VTMFLGQWCSHSIVAMCIEG | inactive
VRTVFCNIFFEFRGGSRNWA | 1.79 ± 0.11
MDIRERRRFFSNIRRVRYLK | inactive
IIHEFFSTQLILYDCIDRWF | inactive
SNDVKNVHP | inactive
IMQFGDFYIIQRERRSYVLW | 2.25 ± 0.087
LGDALAEVNQDHADSGYRVT | inactive
DILTMCEYDSDNNVGNLCYS | inactive
FIITPTYIICQRLFY | inactive
WVFNGARKGM | inactive
LFEWMRCMTVFMVGAAYAAT | inactive
PSSLVIINNYSYC | 3.09 ± 0.073
LDGQFNNLYMYPSFYQEVAG | inactive
SYYFMGHLVFSVQTCIYTQG | 0.004 ± 0.26
WDFFIGLLLYSIL | inactive
MFMVHQVDTERW | inactive

Substance | amyloid nucleation score
YLLSVYLLVATSCMYGNMGE | inactive
FYCLHSMLKMGEDVRAMNLD | inactive
RYCGYHGVRFCSVCRFNMSL | inactive
IWVSYWAGFVRSFSRVCNLV | inactive
QMGVVNLRAKGQQCAQRQSK | inactive
CYVIILVRL | inactive
HDNRDDRIVFFARLDHSRRS | 0.626 ± 0.34
GRIYFYLVKTDPVQERTQLF | inactive
NWVQKRPGQRHFNIASNCV | inactive
RAMCIESTYLVMPYTTCNQT | inactive
GRRMWCCREAHRSNDQV | 1.28 ± 0.11
YDELY | inactive
IMIGKVLFFGVATRMSVLRL | inactive
YKHVARLEP | inactive
RRFTHRIEVRTSVAIS | inactive
GFRYALHSLIDR | inactive
LSCHETCLVISGLCMLMMRL | inactive
LVICKNINKLISWLSDYSFA | inactive
WIVFMGDASCLSLLTWELFC | 1.25 ± 0.095
VLMISCTS | inactive
KGSTSAVIGRYGWLRMRC | inactive
